In patent US8815527 (Stanford University, dated 2014):

What was measured:
[1] = molecular target: AKT phosphorylated at Ser473; test: flow cytometry, Jurkat T cells +PDGF, AKT+ gated; number stands under the right-hand population (ser473 stain about 50, thr308 stain about 50); one dotted box encloses both populations
[2] = molecular target: p38 MAPK phosphorylated at Thr180/Tyr182; test: flow cytometry, Jurkat T cells +Anisomycin; gate around the population with phospho-p38 stain about 15 to 100
[3] = molecular target: β4 integrin (NIH3T3-derived cells) (UniProt A2A863 29-1818, limits assumed); test: two-column affinity chromatography (ICAM-2 solid support, then streptavidin-agarose) and immunoblot
[4] = molecular target: T1, Leukocyte Function Antigen-1 (LFA-1) on the cell surface (human, UniProt P20701 26-1170; P05107 23-769); test: cell-based or functional assay
[5] = molecular target: T1, Leukocyte Function Antigen-1 (LFA-1) on …; test: flow cytometry, ICAM-2-FITC titration on Jurkat cells, single cell analysis
Description: Molecular weight was calculated using relative distance migration from a molecular weight standard. Concentration was determined using serial dilutions of BSA as a standard. […] Mean fluorescence intensity was plotted per time of a gated homogenous cell population. Flow rate was maintained at 200-300 cells/second, with fluorescence intensity values acquired at 10 millisecond intervals for 1200 seconds. […] Cells were washed 1×, and analyzed for mean fluorescent intensity (MFI) of 10^4 cells. […] Values were fit to the equation Y=m1*M0/(m2+M0) (see materials and methods).

[6] = molecular target: ezrin in NIH3T3 cells (UniProt P26040 1-586); test: co-immunoprecipitation (IP ICAM-2, immunoblot ezrin) from transduced NIH3T3 cells
Excerpt: Control lysates were not subjected to immunoprecipitation and reflect positive controls for detected interacting protein. […] Phosphotransfer of ATP to peptide substrate was detected by scintillation counting and presented as counts per minute CPM.

T1 sequence (P20701 26-1170, chain 1 of 2): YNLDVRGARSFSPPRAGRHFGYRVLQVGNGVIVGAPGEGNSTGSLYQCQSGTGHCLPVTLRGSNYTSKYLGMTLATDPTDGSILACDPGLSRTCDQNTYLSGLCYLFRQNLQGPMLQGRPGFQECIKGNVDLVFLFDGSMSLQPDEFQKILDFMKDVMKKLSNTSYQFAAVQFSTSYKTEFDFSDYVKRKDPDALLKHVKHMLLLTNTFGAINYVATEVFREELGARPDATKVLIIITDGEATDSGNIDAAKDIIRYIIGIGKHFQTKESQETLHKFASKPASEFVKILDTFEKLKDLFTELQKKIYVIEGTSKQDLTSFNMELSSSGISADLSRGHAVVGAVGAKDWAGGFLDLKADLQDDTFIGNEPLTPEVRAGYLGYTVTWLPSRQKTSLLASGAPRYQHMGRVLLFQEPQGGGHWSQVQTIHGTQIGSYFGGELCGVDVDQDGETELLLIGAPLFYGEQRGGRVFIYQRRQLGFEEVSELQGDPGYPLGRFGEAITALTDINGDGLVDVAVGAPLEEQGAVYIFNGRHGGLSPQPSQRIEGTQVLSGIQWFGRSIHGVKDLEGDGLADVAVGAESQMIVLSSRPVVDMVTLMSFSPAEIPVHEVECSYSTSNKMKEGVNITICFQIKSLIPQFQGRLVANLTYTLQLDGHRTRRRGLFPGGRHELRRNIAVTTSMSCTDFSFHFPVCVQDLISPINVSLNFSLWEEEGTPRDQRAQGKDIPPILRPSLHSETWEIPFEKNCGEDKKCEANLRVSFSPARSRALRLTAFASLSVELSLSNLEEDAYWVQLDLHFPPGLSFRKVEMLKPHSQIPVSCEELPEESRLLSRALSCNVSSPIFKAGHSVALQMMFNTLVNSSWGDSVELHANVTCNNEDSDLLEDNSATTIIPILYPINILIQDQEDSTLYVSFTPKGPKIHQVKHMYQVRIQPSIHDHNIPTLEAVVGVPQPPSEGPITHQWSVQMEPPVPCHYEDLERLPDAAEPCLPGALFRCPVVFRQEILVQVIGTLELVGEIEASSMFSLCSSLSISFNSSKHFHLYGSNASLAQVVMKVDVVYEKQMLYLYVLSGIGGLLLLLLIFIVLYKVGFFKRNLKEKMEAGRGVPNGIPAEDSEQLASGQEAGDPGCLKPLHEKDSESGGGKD
T1 sequence (P05107 23-769, chain 2 of 2): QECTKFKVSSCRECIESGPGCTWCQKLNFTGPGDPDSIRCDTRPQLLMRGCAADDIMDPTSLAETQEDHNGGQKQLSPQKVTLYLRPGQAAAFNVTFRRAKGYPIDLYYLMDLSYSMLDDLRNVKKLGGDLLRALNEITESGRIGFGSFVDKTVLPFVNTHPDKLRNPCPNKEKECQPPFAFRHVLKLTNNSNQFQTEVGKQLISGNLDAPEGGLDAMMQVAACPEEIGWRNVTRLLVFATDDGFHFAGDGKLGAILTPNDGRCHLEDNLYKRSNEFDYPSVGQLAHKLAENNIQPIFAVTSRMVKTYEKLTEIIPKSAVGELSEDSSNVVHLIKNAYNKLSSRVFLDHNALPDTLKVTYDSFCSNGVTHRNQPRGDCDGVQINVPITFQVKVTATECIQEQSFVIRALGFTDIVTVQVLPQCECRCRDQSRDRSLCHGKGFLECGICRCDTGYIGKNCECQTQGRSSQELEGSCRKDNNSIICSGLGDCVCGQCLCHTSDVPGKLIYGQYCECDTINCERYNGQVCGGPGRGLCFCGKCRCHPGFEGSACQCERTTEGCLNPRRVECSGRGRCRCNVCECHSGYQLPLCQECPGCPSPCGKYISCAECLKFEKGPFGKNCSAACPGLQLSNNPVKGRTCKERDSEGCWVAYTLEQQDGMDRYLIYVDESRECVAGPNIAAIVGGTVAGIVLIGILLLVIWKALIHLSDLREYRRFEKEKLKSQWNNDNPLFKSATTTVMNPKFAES
Sequence of ezrin in NIH3T3 cells (P26040 whole entry): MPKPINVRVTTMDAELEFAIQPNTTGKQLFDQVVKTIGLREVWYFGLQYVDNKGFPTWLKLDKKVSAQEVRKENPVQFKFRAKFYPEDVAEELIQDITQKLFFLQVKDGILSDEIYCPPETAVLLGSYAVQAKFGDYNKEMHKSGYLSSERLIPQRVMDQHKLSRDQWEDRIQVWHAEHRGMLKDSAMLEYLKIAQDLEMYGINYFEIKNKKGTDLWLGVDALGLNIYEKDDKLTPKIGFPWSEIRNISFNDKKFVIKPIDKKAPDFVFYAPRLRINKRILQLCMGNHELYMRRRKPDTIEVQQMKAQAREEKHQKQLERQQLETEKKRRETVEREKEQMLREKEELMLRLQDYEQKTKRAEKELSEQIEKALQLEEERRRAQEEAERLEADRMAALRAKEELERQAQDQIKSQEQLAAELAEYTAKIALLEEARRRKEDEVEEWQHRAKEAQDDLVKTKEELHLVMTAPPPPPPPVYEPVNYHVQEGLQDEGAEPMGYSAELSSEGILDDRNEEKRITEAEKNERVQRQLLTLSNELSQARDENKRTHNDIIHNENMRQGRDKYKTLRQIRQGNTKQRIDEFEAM
Sequence of β4 integrin (NIH3T3-derived cells) (A2A863 29-1818 limits assumed): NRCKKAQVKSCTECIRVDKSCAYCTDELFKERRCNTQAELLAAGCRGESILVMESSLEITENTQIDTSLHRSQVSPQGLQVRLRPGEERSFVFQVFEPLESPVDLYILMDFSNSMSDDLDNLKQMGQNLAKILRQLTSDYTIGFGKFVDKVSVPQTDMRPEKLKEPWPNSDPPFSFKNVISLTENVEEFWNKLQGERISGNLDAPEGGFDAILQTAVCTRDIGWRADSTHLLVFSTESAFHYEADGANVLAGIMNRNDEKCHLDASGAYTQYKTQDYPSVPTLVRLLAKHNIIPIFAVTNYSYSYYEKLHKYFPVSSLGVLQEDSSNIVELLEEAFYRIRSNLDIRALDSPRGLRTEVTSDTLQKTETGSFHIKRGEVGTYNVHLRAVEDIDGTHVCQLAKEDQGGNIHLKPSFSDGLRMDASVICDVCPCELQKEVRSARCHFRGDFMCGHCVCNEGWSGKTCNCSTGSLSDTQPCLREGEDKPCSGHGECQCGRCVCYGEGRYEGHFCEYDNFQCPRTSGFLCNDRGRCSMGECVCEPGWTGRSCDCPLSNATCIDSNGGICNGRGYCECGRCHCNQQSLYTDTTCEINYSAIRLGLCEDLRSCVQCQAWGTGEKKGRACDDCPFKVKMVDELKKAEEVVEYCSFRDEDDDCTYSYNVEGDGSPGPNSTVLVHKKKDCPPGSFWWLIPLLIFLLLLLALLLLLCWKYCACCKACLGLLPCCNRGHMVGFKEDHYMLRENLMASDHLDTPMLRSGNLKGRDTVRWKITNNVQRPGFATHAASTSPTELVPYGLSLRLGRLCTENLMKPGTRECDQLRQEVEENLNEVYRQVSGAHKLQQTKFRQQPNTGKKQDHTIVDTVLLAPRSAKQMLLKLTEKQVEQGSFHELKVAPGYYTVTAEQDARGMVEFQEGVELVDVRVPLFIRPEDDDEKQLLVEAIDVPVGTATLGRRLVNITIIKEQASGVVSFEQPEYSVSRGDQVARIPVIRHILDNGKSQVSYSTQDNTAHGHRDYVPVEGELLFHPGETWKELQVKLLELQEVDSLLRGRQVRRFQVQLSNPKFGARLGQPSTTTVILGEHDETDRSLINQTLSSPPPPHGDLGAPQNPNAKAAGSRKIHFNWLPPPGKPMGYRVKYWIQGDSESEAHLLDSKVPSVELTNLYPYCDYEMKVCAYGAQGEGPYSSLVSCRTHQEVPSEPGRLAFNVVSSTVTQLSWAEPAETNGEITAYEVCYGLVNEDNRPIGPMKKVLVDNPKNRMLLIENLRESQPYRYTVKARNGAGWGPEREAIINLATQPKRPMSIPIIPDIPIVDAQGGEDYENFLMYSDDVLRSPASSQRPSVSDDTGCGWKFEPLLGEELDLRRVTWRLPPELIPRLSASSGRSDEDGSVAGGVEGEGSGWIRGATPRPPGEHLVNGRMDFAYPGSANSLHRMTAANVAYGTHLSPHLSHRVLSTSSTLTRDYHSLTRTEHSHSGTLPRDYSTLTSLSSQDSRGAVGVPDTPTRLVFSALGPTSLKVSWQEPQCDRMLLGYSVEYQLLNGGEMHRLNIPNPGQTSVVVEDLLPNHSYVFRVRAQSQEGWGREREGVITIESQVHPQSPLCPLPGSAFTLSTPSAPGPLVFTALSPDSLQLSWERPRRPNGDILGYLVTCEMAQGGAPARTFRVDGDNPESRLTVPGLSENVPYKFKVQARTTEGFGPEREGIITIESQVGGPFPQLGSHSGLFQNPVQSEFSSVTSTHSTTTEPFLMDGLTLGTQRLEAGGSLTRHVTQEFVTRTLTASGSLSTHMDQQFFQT

**Q.** Which percent of gated cells (number printed below the gate) [1] does the source give for “phospho-AKT Ser473 monoclonal antibody 4E2” here?
**A.** 43.9

**Q.** With “phospho-p38 MAP kinase (Thr180/Tyr182) monoclonal antibody 28B10” as the molecule, how does the percent of cells in the drawn gate (number printed beside the gate) [2] read?
**A.** 13.3

B1: soluble human ICAM-2 protein, biochemically purified from retrovirally transduced NIH3T3 cells (ligand, UniProt P13598 25-275, looked up)
chain: KVFEVHVRPKKLAVEPKGSLEVNCSTTCNQPEVGGLETSLDKILLDEQAQWKHYLVSNISHDTVLQCHFTCSGKQESMNSNVSVYQPPRQVILTLQPTLVAVGKSFTIECRVPTVEPLDSLTLFLFRGNETLHYETFGKAAPAPQEATATFNSTADREDGHRNFSCLAVLDLMSRGGNIFHKHSAPKMLEIYEPVSDSQMVIIVTVVSVLLSLFVTSVLLCFIFGQHLRQQRMGTYGVRAAWRRLPQAFRP
modifications: FITC (NHS-fluorescein) conjugate where used as ICAM-2-FITC, sites not stated
notes: mature; also called sICAM-2; soluble ICAM-2
**Q.** What does the source list for B1?
**A.** binding result [3]: no binding; stimulus needed for similar expression of CD69 and CD25 on naive CD4+ T cells, 6 hr [4]: 10000 fold; Kd [5]: 0.217 µM

B2: human ICAM-2, full length, in cells (receptor, UniProt P13598 25-275, looked up)
chain: B1 chain
notes: whole, on cells; Used in co-immunoprecipitations from cell lysates, FACS staining and cell mixing assays; also called ICAM-2 cells; CD102
**Q.** Does B2 bind [6]?
**A.** binds
